{
  "source": "patent US20230242871A1",
  "about": "“GENERATION OF PRIMORDIAL GERM CELLS AND METHODS OF USING THE SAME” (The Board of Trustees of the Leland Stanfor Junior …, priority 2020, published 2023)",
  "molecules": {"B1": {"name": "BMP4: bone morphogenetic protein 4, UniProt P12644 (protein, UniProt P12644 293-408, looked up)", "Bone morphogenetic protein 4": "SPKHHSQRARKKNKNCRRHSLYVDFSDVGWNDWIVAPPGYQAFYCHGDCPFPLADHLNSTNHAIVQTLVNSVNSSIPKACCVPTELSAISMLYLDEYDKVVLKNYQEMVVEGCGCR"}},
  "test_system": "NANOS3-mCherry hESCs",
  "assay": "PGC differentiation of NANOS3-mCherry hESCs, flow cytometry for NANOS3-mCherry fluorescent reporter expression",
  "assay_type": "cell-based, human",
  "from_the_text": "In the NANOS3-mCherry hESC line, a 2A-mCherry fluorescent reporter was inserted immediately downstream of the NANOS3 gene without disrupting its coding sequence (Irie et al., 2014). In the SOX17-GFP hESC line, a GFP fluorescent reporter was inserted immediately after the SOX17 start codon, thus functionally invalidating one SOX17 allele (Wang et al., 2011). In the NANOG-2A-YFP hESC line, Cas9 RNP/AAV6-based genome editing (Martin et al., 2019) was used to insert a 2A-iCaspase9-2A-YFP fluorescent reporter immediately downstream of the NANOG gene without disrupting the NANOG coding sequence.\nhPSC differentiation into PGCs. Undifferentiated hPSCs were maintained in mTeSR1 + 1% penicillin/streptomycin and enzymatically passaged (Accutase, 1:8-1:12 split) for differentiation. After overnight recovery in mTeSR1 + Thiazovivin (ROCK inhibitor, 5 µM), the following morning, hPSCs were briefly washed (DMEM/F12) and differentiated into posterior epiblast for 12 hours (100 ng/mL Activin + 3 µM CHIR99021 + 10 µM Y-27632) in aRB27 basal media, which comprised Advanced RPMI 1640 medium supplemented with 1% B27 supplement, 0.1 mM non-essential amino acids (NEAA), 100 U/ml Penicillin + 0.1 mg/ml Streptomycin, and 2 mM L-Glutamine (Kobayashi et al., 2017). Subsequently, […], […], […], 100 ng/mL SCF, 50 ng/mL EGF, 1 µM XAV939, and 10 µM Y-27632 for 24 hours (all in aRB27 basal media). For comparison, published PGC differentiation protocols (Sasaki et al., 2015; Kobayashi et al., 2017) were performed as described previously.\nFlow cytometry and fluorescence-activated cell sorting (FACS) for cell-surface marker expression. hPSCs or their differentiated derivatives were dissociated using TrypLE Express (Gibco), were washed off the plate with FACS buffer (PBS + 0.1% BSA fraction V [Gibco] + 1 mM EDTA [Gibco] + 1% penicillin/streptomycin [Gibco]) and were pelleted by centrifugation (5 mins, 4° C.). Subsequently, cell pellets were directly resuspended in FACS buffer containing pre-diluted primary antibodies (listed below), thoroughly triturated to ensure a single cell suspension, and primary antibody staining was conducted for 30 mins on ice. Afterwards, cells were washed with an excess of FACS buffer and pelleted again, and this was conducted one more time. Finally, washed cell pellets were resuspended in FACS buffer containing 1.1 µM DAPI (Biolegend), and were strained through a 35 µm filter. Flow cytometry and sorting was conducted on a BD FACSAria II (Stanford Stem Cell Institute FACS Core).",
  "data": [
    {"molecule": "B1", "values": [
      {"measurement": "efficiency upon BMP4 subtraction", "setting": "BMP4 subtraction from D1.5-2.5, in BMP4 + SCF + EGF + XAV939 + Y-27632 D0.5-3.5, readout D3.5, FIG. 5C", "result": "enhance efficiency"},
      {"measurement": "efficiency on BMP4 titration", "setting": "BMP4 titrated to 20 ng/mL on D0.5-3.5, monolayer, readout D3.5, FIG. 5D", "result": "without significant loss in efficiency"},
      {"measurement": "differentiation of PGCs, BMP4 not omitted", "setting": "continuous BMP4 in second phase, FIG. 5C", "result": "about 10%"},
      {"measurement": "differentiation of PGCs, BMP4 omitted", "setting": "omitting BMP4 from the culture media for 24 hrs at day 2 of differentiation, FIG. 5C", "result": "~30", "unit": "%"}
    ]}
  ]
}
